17 molecules from patent publication US20220062341A1 (KIRIN, published 2022) can be followed below.

First the molecules themselves.
B1: full-length TCR (ba1) (TCR)
chain: MLSLLLLLLGLGSVFSAVISQKPSRDICQRGTSLTIQCQVDSQVTMMFWYRQQPGQSLTLIATANQGSEATYESGFVIDKFPISRPNLTFSTLTVSNMSPEDSSIYLCSVDGQGNTGELFFGEGSRLTVLEDLKNVFPPEVAVFEPSEAEISHTQKATLVCLATGFYPDHVELSWWVNGKEVHSGVSTDPQPLKEQPALNDSRYCLSSRLRVSATFWQNPRNHFRCQVQFYGLSENDEWTQDRAKPVTQIVSAEAWGRADCGFTSESYQQGVLSATILYEILLGKATLYAVLVSALVLMAMVKRKDSRGSGSGEGRGSLLTCGDVEENPGPMACPGFLWALVISTCLEFSMAQTVTQSQPEMSVQEAETVTLSCTYDTSESDYYLFWYKQPPSRQMILVIRQEAYKQQNATENRFSVNFQKAAKSFSLKISDSQLGDAAMYFCAYWSNNNARLMFGDGTQLVVKPNIQNPDPAVYQLRDSKSSDKSVCLFTDFDSQTNVSQSKDSDVYITDKTVLDMRSMDFKSNSAVAWSNKSDFACANAFNNSIIPEDTFFPSPESSCDVKLVEKSFETDTNLNFQNLSVIGFRILLLKVAGFNLLMTLRLWSS
B2: modified TCR ba2 (TCR)
TCR alpha: NIQNPDPAVYQLRDSKSSDKSVCLFTDFDSQTNVSQSKDSDVYITDKTVLDMRSMDFKSNSAVAWSNKSDFACANAFNNSIIPEDTFFPSPESSCDVKLVEKSFETDTNLNFQNLSVIGFRILLLKVAGFNLLMTLRLWSS
TCR beta: EDLKNVFPPEVAVFEPSEAEISHTQKATLVCLATGFYPDHVELSWWVNGKEVHSGVSTDPQPLKEQPALNDSRYCLSSRLRVSATFWQNPRNHFRCQVQFYGLSENDEWTQDRAKPVTQIVSAEAWGRADCGFTSESYQQGVLSATILYEILLGKATLYAVLVSALVLMAMVKRKDSRG
B3: modified TCR ba4 (TCR)
TCR alpha: B2 TCR alpha
TCR beta: VSTDPQPLKEQPALNDSRYCLSSRLRVSATFWQNPRNHFRCQVQFYGLSENDEWTQDRAKPVTQIVSAEAWGRADCGFTSESYQQGVLSATILYEILLGKATLYAVLVSALVLMAMVKRKDSRG
B4: modified TCR ba9 (TCR)
TCR alpha: KSNSAVAWSNKSDFACANAFNNSIIPEDTFFPSPESSCDVKLVEKSFETDTNLNFQNLSVIGFRILLLKVAGFNLLMTLRLWSS
TCR beta: B2 TCR beta
B5: modified TCR ba16 (TCR)
TCR alpha: DVYITDKTVLDMRSMDFKSNSAVAWSNKSDFACANAFNNSIIPEDTFFPSPESSCDVKLVEKSFETDTNLNFQNLSVIGFRILLLKVAGFNLLMTLRLWSS
TCR beta: AKPVTQIVSAEAWGRADCGFTSESYQQGVLSATILYEILLGKATLYAVLVSALVLMAMVKRKDSRG
B6: modified TCR ba18 (TCR)
TCR alpha: IPEDTFFPSPESSCDVKLVEKSFETDTNLNFQNLSVIGFRILLLKVAGFNLLMTLRLWSS
TCR beta: B5 TCR beta
B7: modified TCR ba17 (TCR)
TCR alpha: B4 TCR alpha
TCR beta: B5 TCR beta
B8: modified TCR ba6 (TCR)
TCR alpha: B2 TCR alpha
TCR beta: B5 TCR beta
B9: modified TCR ba8 (TCR)
TCR alpha: B5 TCR alpha
TCR beta: B2 TCR beta
B10: modified TCR ba11 (TCR)
TCR alpha: SVCLFTDFDSQTNVSQSKDSDVYITDKTVLDMRSMDFKSNSAVAWSNKSDFACANAFNNSIIPEDTFFPSPESSCDVKLVEKSFETDTNLNFQNLSVIGFRILLLKVAGFNLLMTLRLWSS
TCR beta: ATLVCLATGFYPDHVELSWWVNGKEVHSGVSTDPQPLKEQPALNDSRYCLSSRLRVSATFWQNPRNHFRCQVQFYGLSENDEWTQDRAKPVTQIVSAEAWGRADCGFTSESYQQGVLSATILYEILLGKATLYAVLVSALVLMAMVKRKDSRG
B11: modified TCR ba7 (TCR)
TCR alpha: B10 TCR alpha
TCR beta: B2 TCR beta
B12: modified TCR ba12 (TCR)
TCR alpha: B5 TCR alpha
TCR beta: B10 TCR beta
B13: modified TCR ba13 (TCR)
TCR alpha: B4 TCR alpha
TCR beta: B10 TCR beta
B14: modified TCR ba15 (TCR)
TCR alpha: B10 TCR alpha
TCR beta: B5 TCR beta
B15: modified TCR ba3 (TCR)
TCR alpha: B2 TCR alpha
TCR beta: B10 TCR beta
B16: modified TCR ba14 (TCR)
TCR alpha: B6 TCR alpha
TCR beta: B10 TCR beta
B17: modified TCR ba5 (TCR)
TCR alpha: B2 TCR alpha
TCR beta: FRCQVQFYGLSENDEWTQDRAKPVTQIVSAEAWGRADCGFTSESYQQGVLSATILYEILLGKATLYAVLVSALVLMAMVKRKDSRG

Chain of CD3E (P07766 23-207): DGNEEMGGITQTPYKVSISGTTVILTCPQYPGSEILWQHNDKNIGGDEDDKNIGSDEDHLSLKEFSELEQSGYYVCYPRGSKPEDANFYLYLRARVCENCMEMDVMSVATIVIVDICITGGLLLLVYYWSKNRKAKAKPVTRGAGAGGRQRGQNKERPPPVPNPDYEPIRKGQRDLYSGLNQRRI
Chain of CD3 subunits (CD3E, CD3G, CD3D, CD3Z) (P07766 23-207, chain 1 of 4): as the sequence (P07766 23-207) above
Chain of CD3 subunits (CD3E, CD3G, CD3D, CD3Z) (P09693 23-182, chain 2 of 4): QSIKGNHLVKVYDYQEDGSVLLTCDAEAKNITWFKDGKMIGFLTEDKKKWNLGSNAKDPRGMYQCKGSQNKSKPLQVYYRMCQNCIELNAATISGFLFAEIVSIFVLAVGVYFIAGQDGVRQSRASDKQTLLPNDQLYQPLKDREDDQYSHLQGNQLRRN
Chain of CD3 subunits (CD3E, CD3G, CD3D, CD3Z) (P04234 22-171, chain 3 of 4): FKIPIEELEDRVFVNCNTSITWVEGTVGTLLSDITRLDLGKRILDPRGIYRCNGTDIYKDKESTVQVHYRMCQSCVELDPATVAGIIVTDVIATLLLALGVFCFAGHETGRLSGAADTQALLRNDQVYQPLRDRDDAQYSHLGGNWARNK
Chain of CD3 subunits (CD3E, CD3G, CD3D, CD3Z) (P20963 22-164, chain 4 of 4): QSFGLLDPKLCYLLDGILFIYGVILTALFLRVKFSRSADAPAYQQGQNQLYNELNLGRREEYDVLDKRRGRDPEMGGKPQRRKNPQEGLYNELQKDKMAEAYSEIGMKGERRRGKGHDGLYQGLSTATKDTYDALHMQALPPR

One test addresses CD3 subunits (CD3E, CD3G, CD3D, CD3Z) (human, UniProt P07766 23-207; P09693 23-182; P04234 22-171; P20963 22-164). Briefly: cell-based or functional assay.
On to B1, for which the “expression of CD3 (CD3-positive proportion), cells differentiated from iPS-derived HPCs (FF-WJs524), Day 21” value was found to be 99.8%.

Regarding B2, the “expression of CD3 (CD3-positive proportion), cells differentiated from iPS-derived HPCs (FF-WJs524), Day 21” value was 50.4%.

As for B3, the “expression of CD3 (CD3-positive proportion), cells differentiated from iPS-derived HPCs (FF-WJs524), Day 21” value is 38.3%.

Regarding B4, the “expression of CD3 (CD3-positive proportion), cells differentiated from iPS-derived HPCs (FF-WJs524), Day 21” value amounted to 99.5%.

The next test addresses CD3E (human, UniProt P07766 23-207). The experiment in a line: cell-based or functional assay.
Turning to B5, the “CD3E-positive proportion [%] (Avg, n = 2), CD3-stably expressing 293T cells” value (“CD3E-positive proportion [%]” for short) is 70.7%.

On to B6, for which the “CD3E-positive proportion [%]” value came to 89.5%.

For the molecule B7, the “CD3E-positive proportion [%]” value is 81.9%.

On to B8, for which the “CD3E-positive proportion [%]” value was found to be 47.6%.

On to B9, for which the “CD3E-positive proportion [%]” value turned out to be 90.3%.

Turning to B1, the “CD3E-positive proportion [%]” value came to 88.7%.

For B10, the “CD3E-positive proportion [%]” value stood at 83.2%.

As for B11, the “CD3E-positive proportion [%]” value amounted to 88.6%.

As to B12, the “CD3E-positive proportion [%]” value came out at 51%.

In the case of B13, the “CD3E-positive proportion [%]” value amounted to 40.4%.

B14: the “CD3E-positive proportion [%]” value amounted to 56.5%.

Take B15: the “CD3E-positive proportion [%]” value came to 82.3%.

For the molecule B16, the “CD3E-positive proportion [%]” value was determined as 46.4%.

Consider B2, for which the “CD3E-positive proportion [%]” value came out at 84.5%.

On to B3, for which the “CD3E-positive proportion [%]” value worked out at 10.2%.

Consider B4, for which the “CD3E-positive proportion [%]” value was 90.7%.

On to B17, for which the “CD3E-positive proportion [%]” value came out at 48.4%.
